Where a chain is given by its changes, count along the chain named.
B1: Gly 33: literature hIL-3 variant in which Pro 33 was substituted with Gly (Lokker et al, 1991a) (protein, UniProt P08700 20-152, looked up, variant P33G)
Interleukin-3: APMTQTTPLKTSWVNCSNMIDEIITHLKQPPLGLLDFNNLNGEDQDILMENNLRRPNLEAFNRAVKSLQNASAIESILKNLLPCLPLATAAPTRHPIHIKDGDWNEFRRKLTFYLKTLENAQAQQTTLSLAIF
B2: M47: human IL-3 mutant, glutamic acid at position 22 replaced by arginine (protein, UniProt P08700 20-152, looked up, variant E22R)
Interleukin-3: B1 Interleukin-3 with E22R, G33P
B3: M25: human IL-3 mutant with substitution of residues 21, 22 and 25 (protein, UniProt P08700 20-152, looked up, variant D21A E22L T25A)
Interleukin-3: B1 Interleukin-3 with D21A, E22L, T25A, G33P
B4: M9: human IL-3 mutant, amino acid 116 (Lys) replaced by Val (protein, UniProt P08700 20-152, looked up, variant K116V)
Interleukin-3: B1 Interleukin-3 with G33P, K116V
B5: M6: human IL-3 mutant, amino acid 101 (Asp) replaced by Ala (protein, UniProt P08700 20-152, looked up, variant D101A)
Interleukin-3: B1 Interleukin-3 with G33P, D101A

Assays:
M-07 cell line = conditions: E. coli expressed variants, literature; cited from earlier work
IL-3 receptor = target: T1, IL-3 receptor (Homo sapiens, UniProt P26951+P32927); conditions: E. coli expressed variants, literature; cited from earlier work
T1 sequence (P26951 19-378): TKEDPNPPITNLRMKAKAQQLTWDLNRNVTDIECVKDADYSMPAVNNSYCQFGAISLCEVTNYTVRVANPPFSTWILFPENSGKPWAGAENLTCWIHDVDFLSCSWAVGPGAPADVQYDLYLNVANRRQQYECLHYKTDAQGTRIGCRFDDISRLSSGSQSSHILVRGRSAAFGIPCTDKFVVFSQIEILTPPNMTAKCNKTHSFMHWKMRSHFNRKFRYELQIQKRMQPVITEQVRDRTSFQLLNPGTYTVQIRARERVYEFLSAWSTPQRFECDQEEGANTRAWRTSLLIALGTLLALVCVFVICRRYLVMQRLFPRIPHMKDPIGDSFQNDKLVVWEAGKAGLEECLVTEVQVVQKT
T1 sequence (P32927 17-897): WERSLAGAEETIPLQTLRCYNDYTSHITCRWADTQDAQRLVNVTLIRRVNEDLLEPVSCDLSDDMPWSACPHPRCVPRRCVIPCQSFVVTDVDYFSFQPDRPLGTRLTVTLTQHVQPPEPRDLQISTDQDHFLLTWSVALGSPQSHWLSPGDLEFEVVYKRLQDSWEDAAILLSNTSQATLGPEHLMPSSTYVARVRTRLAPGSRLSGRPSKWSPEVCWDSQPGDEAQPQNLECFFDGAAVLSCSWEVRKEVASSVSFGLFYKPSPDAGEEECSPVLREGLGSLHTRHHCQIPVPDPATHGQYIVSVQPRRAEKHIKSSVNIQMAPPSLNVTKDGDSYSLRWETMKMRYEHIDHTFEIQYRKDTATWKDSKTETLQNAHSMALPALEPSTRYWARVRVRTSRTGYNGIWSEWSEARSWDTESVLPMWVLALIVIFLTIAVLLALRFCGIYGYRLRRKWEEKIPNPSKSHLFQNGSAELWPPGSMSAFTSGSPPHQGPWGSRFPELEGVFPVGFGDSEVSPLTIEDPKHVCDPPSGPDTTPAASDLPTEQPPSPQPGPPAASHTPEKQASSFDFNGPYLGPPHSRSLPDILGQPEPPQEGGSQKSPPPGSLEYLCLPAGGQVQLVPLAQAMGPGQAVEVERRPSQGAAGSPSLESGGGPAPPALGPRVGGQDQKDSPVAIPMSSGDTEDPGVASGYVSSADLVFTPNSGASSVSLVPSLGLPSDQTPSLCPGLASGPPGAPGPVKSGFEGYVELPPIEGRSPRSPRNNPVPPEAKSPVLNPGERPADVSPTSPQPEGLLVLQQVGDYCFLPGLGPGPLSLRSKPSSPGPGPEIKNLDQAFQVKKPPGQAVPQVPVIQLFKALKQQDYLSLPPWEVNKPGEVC

[1] = target: T2, IL-3R α chain and β chain (Homo sapiens, UniProt P26951+P32927); test: Competition for 125I-IL-3 binding to reconstituted IL-3 high affinity receptor (α and β chains) in COS cells; conditions: FIG. 7
T2 construct: amplify the complete coding region of the IL-3R alpha chain; also to amplify the coding region of the IL-3R α chain; expressed in transfected cells; host or cells: COS cells (pCDM8 vector, electroporation)
T2 sequence (P26951 19-378): T1 sequence (P26951 19-378)
T2 sequence (P32927 17-897): T1 sequence (P32927 17-897)
From the text: PolyA+ RNA was isolated from the human cord blood cell line KMT2. Oligo dT primed double stranded cDNA was synthesised and used as template for PCR amplification. The PCR primers were designed to amplify the complete coding region of the IL-3R alpha chain and also to amplify the coding region of the […]. The PCR products were cloned into the vector pGEM-2 for sequence verification, and then into the eukaryotic expression vector, pCDM8. The […]-containing plasmid was transfected into COS cells by electroporation, either on its own or in conjunction with the […], and after two days the cells were used for binding studies.

[2] = system: chronic myeloid leukaemic (CML) cells; test: Proliferation of chronic myeloid leukaemic (CML) cells, [3H] thymidine incorporation; format: cell-based, human; conditions: for stimulation of CML cell proliferation: FIG. 2, FIG. 8; for Relative biological activity, PROLIFERATION CML: concentration of IL-3 mutant giving 50% of biological activity compared to that of wild type IL-3
Method: (b ) Proliferation of chronic myeloid leukaemic (CML) cells: Primarily CML cells from one patient were selected for their ability to incorporate [^3 H] thymidine in response to IL-3 as described (Lopez el. al., supra ). Briefly, CML cells were placed at 2×10^5 cells/mL fresh medium containing different concentrations of IL-3. Cells were incubated for 24 hours in a flat bottom 96-well NUNCLON plates (2×10^4 cells/well) before being pulsed with [^3 H] thymidine (0.5 μCi/well) for four more hours at 37° C. The cells were then harvested onto glass filters with a Titertek automated cell harvester and counted into a Beckman liquid scintillation counter. Data are expressed in cpm, and each point is the mean of six replicates.

[3] = target: T3, IL-3 high affinity receptor of monocytes (Homo sapiens, UniProt P26951+P32927); test: Competition for 125I-IL-3 binding to the high affinity receptor of monocytes; conditions: FIG. 5, at the concentrations tested
T3 construct: endogenous in cells; host or cells: freshly purified human peripheral blood monocytes
T3 sequence (P26951 19-378): T1 sequence (P26951 19-378)
T3 sequence (P32927 17-897): T1 sequence (P32927 17-897)
Method: (a) Radioiodination of hIL-3: rh IL-3 (gift from Dr. L. Park, Immunex Corporation, Seattle, Wash.) was radioiodinated by the ICI method as previously described (Contreras et. al., supra). Iodinated protein was separated from free ^125 I by chromatography on a Sephadex G-25 PD 10 column (Pharmacia, Uppsala, Sweden) equilibrated in phosphate-buffered saline (PBS) containing 0.02% Tween 20, and stored at 4° C. for up to 4 weeks. Before use, the iodinated protein was purified from Tween and nonprotein-associated radioactivity by cation exchange chromatography on a 0.3-ml CM-Sepharose CL-6B column (Pharmacia) and stored at 4° C. for up to 5 days.
(b) Competition Binding assay. Freshly purified monocytes were suspended in binding medium consisting of RPMI 1640 supplemented with 20 mmol/L/HEPES and 0.5% bovine serum albumin (BSA). […] Cell suspensions were then overlaid on 0.2 mL FCS at 4° C. and centrifuged for 30 seconds at a maximum speed in a Beckman Microfugre 12. The tip of each tube was cut off above the visible cell pellet and counted in a Packard Auto-Gamma 5650 (Downer's Grove, Ill). The results are expressed as Percent competition where 100% is the competition observed in the presence of 100 fold excess native IL-3.

monocytes = test: Stimulation of human monocyte adherence (51Cr adhesion assay); format: cell-based; conditions: for stimulation of monocyte adherence: FIG. 3; for Relative biological activity, MONOCYTE: concentration of IL-3 mutant giving 50% of biological activity compared to that of wild type IL-3
Method: (a) Monocyte purification. Monocytes were purified from the peripheral blood of normal donors, obtained from the Adelaide Red Cross Transfusion Service, as previously described (Elliott et. al., 1990, J. Immunol., 145, 167-171). In brief, mononuclear cells were prepared by centrifugation of whole blood on lymphoprep cushions (Nyegaard, Oslo, Norway) and washed twice in HBSS, 0.02% EDTA, 0.1% heat inactivated FCS (Flow Laboratories, North Ryde, Australia) and monocytes were purified in a Beckman J-6M/E elutriator using the Sanderson chamber, a flow rate of 12 ml/min and a constant rotor speed of 2050 rpm. Cells remaining in the chamber after 30 min were collected, washed twice in HBSS, and used immediately. Using these methods, monocyte purity as assessed by morphology and nonspecific-esterase staining was always >90% and usually >95%. The major contaminating cell types were lymphocytes and granulocytes (principally basophils).
(b) Adhesion assay. Adhesion was measured by an isotopic method essentially as described (Elliott et. al., supra). In brief, purified monocytes (0.5 to 1×10^8) were resuspended in 1 ml RPMI 1640 with 0.1% FCS and antibiotics and incubated for 30 min at 37° C. with 500 μCi^51 Cr in the form of sodium chromate (Amersham International., Buckinghamshire, England). Cells were washed thrice in RPMI 1640 and resuspended in culture medium consisting of RPMI 1640, 10% FCS, antibiotics, and 0.2% sodium bicarbonate. For measurement of adhesion, 1 to 2.5×10^5 monocytes were aliquotted per well in 96-well microtitre plates (Nunc, Karnstrup, Denmark) together with stimuli or control medium to a total volume of […], and incubated for the indicated periods. […] At harvest, samples of supernatant were taken to assess spontaneous ^51 Cr release (usually <10% of cell-associated radioactivity), wells were washed three times with RPMI 1640 at 37° C., and residual adherent cells lysed in 10 mM Tris-hydrochloride, and 1% Nonident p40 detergent (Sigma). Lysates were transferred to tubes and counted in a Packard auto-gamma 5650. Percent adherence was calculated according to the formula: [formula]

[4] = system: bone marrow progenitor cells; test: Colony assay: clonal proliferation and differentiation of bone marrow progenitor cells in semi-solid agar; format: cell-based; conditions: for Relative biological activity, PROLIFERATION COLONIES: concentration of IL-3 mutant giving 50% of biological activity compared to that of wild type IL-3, mean ± SD
Method: (a) Colony assay: this assay measured the clonal proliferation and differentiation of bone marrow progenitor cells in semi-solid agar and was carried out as described (Lopez et. al., 1985, Blood 72, 1797-1804). Briefly, low density, macrophage-depleted bone marrow cells were cultured at a concentration of 0.5 to 1×10^5 /mL in Iscove's modified Dulbecco's medium (IMDM, GIBCI, Grant Island, N.Y.), containing 0.33% agar (Difco, Detroit), 25% FCS (Commonwealth Serum Laboratories, Parkville, Victoria, Australia), and 20 μmol/LK2-mercaptoethanol. Different dilutions of IL-3- containing COS cell supernatants were added to each plate. Plates were prepared in triplicate and scored after incubation at 37° C. in 5% CO2 in a humid atmosphere for 14 days. Clones containing 40 cells were scored as colonies.

basophils = test: Histamine release assay with basophils; format: cell-based, human; conditions: FIG. 4
Method: This was carried out as previously described (Lopez et. al., 1990, J. Cell. Physiol., 145, 69-77). Briefly, basophils were obtained from the peripheral blood of normal individuals after dextran sedimentation and centrifugation over Lymphoprep. The percentage of basophils in these preparations varied between 0.2% and 10%. In 300 μl 2×10^4 cells were incubated with 2 μg/ml of purified human IgE. IgE-sensitisedcells were mixed with a goat IgG antihuman IgE (Cappel 0101-0061) and rhIL-3, in a final volume of 500 μl. After incubation for 60 min at 37° C., the cells were centrifuged and 350 μl aliquots removed and stored at -20° C. before assaying for histamine content. Histamine was assayed using a radioertzymatic method essentially as described (Shaff and Beavan, 1979, Anal. Biochem., 94, 425-430). Briefly, samples of 30 μl were diluted with an equal volume of water and mixed with a 30 μl solution comprising 27.5 μl 0.1 M sodium phosphate, pH 7.9, 1.5 μl rat kidney histamine-N-methyltransferase, and 1.0 μl (0.5 μCi)^3 H-methyl-S-adensoyl-L-methionine (Dupont Net 155, low SA). Tritium-labelled methyl-histamine was extracted into chloroform/ether, dried, and counted by scintillation spectrophotometry. […] as nanograms of histamine per milliliter by extrapolation to a standard curve constructed with 10, 5 and 1 ng/ml of histamine (SIGMA).

Molecule | stimulation of CML cell proliferation [2] | stimulation of monocyte adherence (monocytes) | Relative biological activity, PROLIFERATION COLONIES [4] | Relative biological activity, PROLIFERATION CML [2] | Relative biological activity, MONOCYTE (monocytes) | other results
B1 |  |  |  |  |  | proliferation activity, M-07 cells (M-07 cell line): enhanced proliferation activity; receptor binding capacity (IL-3 receptor): without a significant modification
B2 |  |  |  |  |  | binding to cotransfected α and β chains [1]: less binding
B3 | lack of stimulation | lack of stimulation |  |  |  | binding to high affinity IL-3 receptors of monocytes [3]: negative at binding
B4 | more potent than the wild type IL-3 | more potent than the wild type IL-3 | 420 | 328 | 312 | number of day 14 colonies [4]: increase in the number of day 14 colonies; histamine release from basophils (basophils): increased histamine release
B5 | more potent than the wild type IL-3 | more potent than the wild type IL-3 | 104 ± 35 | 205 | 153 ± 48 | 

Reference: patent publication US5591427A, “Human Interleukin-3(Il-3) variants and their use to promote or antagonize IL-3-mediated processes” (Medvet Science Pty. Ltd., priority 1979, dated 1997)
